Reference: patent publication US10400249B2, “HPPD variants and methods of use” (priority 2014, dated 2019)

What was measured:
maize T0 events = test: greenhouse spray test of maize T0 events for tolerance to Cmpd. 4; format: in vivo; conditions: 25 g AI/ha
soybean shoots = test: soybean transformation, greening or bleaching of shoots on isoxaflutole or tembotrione selection; format: in vivo; conditions: selection amount of herbicide
From the text: Soybean transformation is achieved using methods well known in the art, such as the one described using the Agrobacterium tumefaciens mediated transformation soybean half-seed explants using essentially the method described by Paz et al. (2006), Plant cell Rep. 25:206. Transformants were identified using tembotrione or isoxaflutole as selection marker. The appearance of green shoots was observed, and documented as an indicator of tolerance to the herbicide isoxaflutole or tembotrione.

T0 soybean plants = test: greenhouse spray test of T0 soybean plants for tolerance to mesotrione; format: in vivo; conditions: mesotrione 3X field rate, 316 grams AI per hectare, seven days after treatment
Protocol: T0 soybean plants expressing an HPPD inhibitor tolerant enzyme of the present invention, along with a gene conferring tolerance to glyphosate and a gene conferring tolerance to glufosinate or having a “plant expression cassette”, which includes only an HPPD inhibitor tolerant enzyme of the present invention, were tested for tolerance to mesotrione. Prior greenhouse trials with the transgenic plants, soy transformants were routinely analyzed for the expression and presence of the transgenes using the ELISA protein detection method (see detailed description under item D and H). Only plants recovering in the selection media and having a detectable HPPD transgene protein expression were used for the herbicide tolerance analysis. A DeVries Tracker Sprayer was calibrated prior to each spraying. The chemical formulation used for mesotrione (MST) testing was Callisto® 4 SC formulation supplemented with ammonium sulfate and methylated rape seed oil (Actirob). Spray tests were conducted using 3× the field rate (equivalent to 9 fluid ounce per acre of the same herbicide formulation that containing 40% the active ingredient (AI), mesotrione), which equals 316 grams AI per hectare. Tolerance was evaluated one week after spraying. […] A tolerance rating of “0” was assigned to plants that their shoot apexes, newly emerged trifoliates and some axillary buds were completely bleached. A rating of “1” was assigned to plants having slight tolerance, i.e., the newest plant shoot tissues had some green leaves and are not bleached completely. A rating of “2” was assigned to plants showing moderate tolerance, i.e., more than 50% of the leaf area of the top three trifoliates showing no chlorosis or bleaching damage. A rating of “3” was assigned to plants showing nearly perfect tolerance, i.e., less than 10% of the leaf area showing chlorosis or very slight bleaching.

[1] = tested on: Pseudomonas fluorescens HPPD protein; test: HGD assay: HPPD activity coupled to HGA dioxygenase, pI50 and type of inhibition (time-course); format: biochemical
How it was run: (§1)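 pI50 values for Pseudomonas fluorescens HPPD come from two room-temperature formats. The coupled HGD assay continuously follows maleylacetoacetate at 318 nm (pH 7.6 Tris, 600 μM HPP, FeSO4, ascorbate, catalase, inhibitor up to 100 μM) and classifies inhibition type from time-dependence. The endpoint OD assay measures unconsumed 0.5 mM HPP after 24 min via DNP hydrazone at 405 nm (pH 7.8), testing 5.0×10^−6–5.0×10^−4 M inhibitor.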

[2] = tested on: Pseudomonas fluorescens HPPD protein; test: brown color assay: HPPD extracts spotted on solid media containing tyrosine and an HPPD inhibitor; format: biochemical; conditions: TBT, DKN and mesotrione 500-2000 uM, compared with PfHPPD and PfEvo33
Protocol: A specific, although non-limiting, type of assay that can be used to evaluate the HPPD sequences of the invention is a colorimetric assay. In this assay, a YT-broth-type culture medium with 1% agarose, 5 mM L-Tyrosine and 42 mM Succinate, which contains the selection agent for the vector pSE420 (Invitrogen, Karlsruhe, Germany) or a modified version of pSE420 (pSE420(RI)NX) is poured into deep well plates. E. coli culture in the exponential growth phase which contains the vector pSE420-HPPDx (HPPDx means any gene coding for a putative HPPD enzyme/protein) is applied to each well.
The HPPD PfEvo33 mutant (described in International Patent Application No PCT/US2013/59598 (filed on Sep. 13, 2013) and set forth herein as SEQ ID NO:5) was mutagenized at positions 334 and 336. Saturated mutagenesis of these positions was carried out using the QUIKCHANGE® lightning kit. Mutants were pooled and transformed into DH5alpha E. coli cells. Six hundred individual clones were screened for tolerance to the HPPD inhibitor tembotrione (TBT). The clones were grown in LB media plus kanamycin at 37 degrees C. in a shaker until an OD600 nm of 0.3 was reached. Cultures were then switched to 30 degrees C. and incubated for an additional 17 hours. Cultures were spun down and cell pellets resuspended in 10 mM Hepes/KOH pH 7.6, 4 mM MgCl2, 1 mM DTT. […]
The mutants were analyzed using a brown color assay. […]

[3] = tested on: Pseudomonas fluorescens HPPD protein; test: OD assay: HPPD activity and pI50 from HPP remaining after derivatisation with DNP; format: biochemical
How it was run: as §1

[4] = HT-single plant expression cassette
[5] = HT-triple plant expression cassette

Molecule: CSc1c(C(F)(F)F)ccc(C(=O)Nc2nnnn2C)c1Cl [Cmpd. 4, 2-chloro-3-(methylsulfanyl)-N-(1-methyl-1H-tetrazol-5-yl)-4-(trifluoromethyl)benzamide]
- leaf damage of control maize T0 events expressing EPSPS only, no HPPD variant (maize T0 events): 100%
- leaf damage of non-transformed maize plants (maize T0 events): 100%

Molecule: CS(=O)(=O)c1cc(C(F)(F)F)ccc1C(=O)c1cnoc1C1CC1 [isoxaflutole, (5-cyclopropyl-4-isoxazolyl)[2-(methylsulfonyl)-4-(trifluoromethyl)phenyl]methanone]
- appearance of wild-type soybean shoots treated with the herbicide (soybean shoots): entirely bleached

Molecule: CS(=O)(=O)c1ccc(C(=O)C2C(=O)CCCC2=O)c(Cl)c1COCC(F)(F)F [tembotrione, 2-[2-chloro-4-(methylsulfonyl)-3-[(2,2,2,-trifluoroethoxy)methyl]benzoyl]-1,3-cyclo-hexanedione]
- appearance of wild-type soybean shoots treated with the herbicide (soybean shoots): entirely bleached

B1: PfEvo44: PfHPPD variant E335P, G336Y (protein)
chain: MADLYENPMGLMGFEFIEFASPTPGTLEPIFEIMGFTKVATHRSKNVHLYRQGEINLILNNEPNSIASYFAAEHGPSVCGMAFRVKDSQKAYNRALELGAQPIHIDTGPMELNLPAIKGIGGAPLYLIDRFGEGSSIYDIDFVYLEGVERNPVGAGLKVIDHLTHNVYRGRMVYWANFYEKLFNFREARYFDIKGEYTGLTSKAMSAPDGMIRIPLNEESSKGAGQIEEFLMQFNGEGIQHVAFLTDDLVKTWDALKKIGMRFMTAPPDTYYEMLEGRLPDHGEPVDQLQARGILLDGSSVEGDKRLLLQIFSETLMGPVFFEFIQRKGDDGFGPYNFKALFESIERDQVRRGVLTAD
modifications: HPPD variant - PfEvo44
notes: PfHPPD variant E335P, G336Y
- Number of T0 soybean plants with herbicide tolerance rating 0 (completely bleached) (T0 soybean plants; [4]): 7
- Number of T0 soybean plants with herbicide tolerance rating 1 (slight tolerance) (T0 soybean plants; [4]): 14
- Number of T0 soybean plants with herbicide tolerance rating 2 (moderate tolerance) (T0 soybean plants; [4]): 43
- Number of T0 soybean plants with herbicide tolerance rating 3 (nearly perfect tolerance) (T0 soybean plants; [4]): 21
- Number of T0 soybean plants with herbicide tolerance rating 0 (completely bleached) (T0 soybean plants; [5]): 4
- Number of T0 soybean plants with herbicide tolerance rating 1 (slight tolerance) (T0 soybean plants; [5]): 22
- Number of T0 soybean plants with herbicide tolerance rating 2 (moderate tolerance) (T0 soybean plants; [5]): 19
- Number of T0 soybean plants with herbicide tolerance rating 3 (nearly perfect tolerance) (T0 soybean plants; [5]): 26
- mechanism of inhibition by diketonitrile (DKN), time-course of inhibition [1]: fully reversible inhibition
- mechanism of inhibition by mesotrione (MST), time-course of inhibition [1]: fully reversible inhibition
- mechanism of inhibition by tembotrione (TBT), time-course of inhibition [1]: fully reversible inhibition
- tolerance (pI50) DKN ([1]; inhibitor diketonitrile (DKN), HGD assay): 4.1
- tolerance (pI50) MST ([1]; inhibitor mesotrione (MST), HGD assay): 5.2
- tolerance (pI50) TBT ([1]; inhibitor tembotrione (TBT), HGD assay): 5.9
- brown color formation in presence of HPPD inhibitors [2]: darkest color
- Activity DeltaE/24 min μg Protein ([3]; HPPD enzyme activity of the clone): 0.41 DeltaE/24 min μg Protein
- tolerance (pI50) DKN ([3]; inhibitor diketonitrile (DKN), negative log of molar concentration): 4.0
- tolerance (pI50) MST ([3]; inhibitor mesotrione (MST)): 4.6
- tolerance (pI50) TBT ([3]; inhibitor tembotrione (TBT)): >5.6
